Where a chain is given by its changes, count along the chain named. Names may count otherwise.
T1: EsCas13d, nuclease-dead (Eubacterium siraeum, UniProt B0MS50, R295A;H300A;R849A;H854A)
T1 sequence: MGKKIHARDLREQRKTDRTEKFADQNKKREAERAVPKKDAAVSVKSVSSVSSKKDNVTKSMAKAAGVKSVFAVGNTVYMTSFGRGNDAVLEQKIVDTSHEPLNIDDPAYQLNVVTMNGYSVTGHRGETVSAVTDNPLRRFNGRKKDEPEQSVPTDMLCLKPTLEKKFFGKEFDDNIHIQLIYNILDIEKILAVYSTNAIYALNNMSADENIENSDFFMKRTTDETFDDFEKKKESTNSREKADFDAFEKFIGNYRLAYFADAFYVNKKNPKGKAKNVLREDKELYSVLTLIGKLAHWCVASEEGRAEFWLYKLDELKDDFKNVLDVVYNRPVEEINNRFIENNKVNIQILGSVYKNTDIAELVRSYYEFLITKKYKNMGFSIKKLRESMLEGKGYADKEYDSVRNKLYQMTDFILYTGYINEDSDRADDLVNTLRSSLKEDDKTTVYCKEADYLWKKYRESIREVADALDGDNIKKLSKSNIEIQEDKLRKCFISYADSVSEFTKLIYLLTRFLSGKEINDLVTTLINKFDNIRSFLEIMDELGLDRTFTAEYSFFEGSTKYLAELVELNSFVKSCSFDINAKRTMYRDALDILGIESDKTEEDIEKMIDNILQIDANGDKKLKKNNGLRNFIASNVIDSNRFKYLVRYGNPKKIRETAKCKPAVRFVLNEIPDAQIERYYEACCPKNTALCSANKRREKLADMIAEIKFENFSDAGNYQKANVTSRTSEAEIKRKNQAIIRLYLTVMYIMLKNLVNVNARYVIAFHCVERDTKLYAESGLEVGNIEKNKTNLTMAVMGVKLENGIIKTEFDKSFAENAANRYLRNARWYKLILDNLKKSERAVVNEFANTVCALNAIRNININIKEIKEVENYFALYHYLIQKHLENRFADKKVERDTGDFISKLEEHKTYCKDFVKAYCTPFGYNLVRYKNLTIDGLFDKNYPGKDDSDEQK

B1: target 1 insC 3' of 11,insU 3' of 5 (mixed)
RNA 1: CACCCGUGCAAAAAUGCAGGGGUCUAAAACUGAGCGGAUAACCUCUCUAUGG
RNA 2: GGGAAUGGAUCCACAUCUACGAAUUCGUACCAUAGAGAGGUCUAUCCGUCUCACCGAGAUCGGAAGAGCACACGU
B2: target 1 MT 5'PFS UCA 3'PFS AGA (mixed)
RNA 1: B1 RNA 1
RNA 2: GGGAAUGGAUCCACAUCUACGAAUUCUCACCAUAGAGAGGUUAUCCGCUCAAGAAGAUCGGAAGAGCACACGU
B3: target 1 MT 5'PFS UCG 3'PFS UCU (mixed)
RNA 1: B1 RNA 1
RNA 2: B2 RNA 2 with A29G, A52U, G53C, A54U
B4: target 1 MT 5'PFS CCC 3'PFS CUA (mixed)
RNA 1: B1 RNA 1
RNA 2: B2 RNA 2 with U27C, A29C, A52C, G53U
B5: target 1 MT 5'PFS CCC 3'PFS CUG (mixed)
RNA 1: B1 RNA 1
RNA 2: B2 RNA 2 with U27C, A29C, A52C, G53U, A54G
B6: target 1 MT 5'PFS UGC 3'PFS UAG (mixed)
RNA 1: B1 RNA 1
RNA 2: B2 RNA 2 with C28G, A29C, A52U, G53A, A54G
B7: target 1 MT 5'PFS GCG 3'PFS AUU (mixed)
RNA 1: B1 RNA 1
RNA 2: B2 RNA 2 with U27G, A29G, G53U, A54U
B8: target 1 MT 5'PFS UGC 3'PFS UAA (mixed)
RNA 1: B1 RNA 1
RNA 2: B2 RNA 2 with C28G, A29C, A52U, G53A
B9: target 1 MT 5'PFS CCU 3'PFS CCG (mixed)
RNA 1: B1 RNA 1
RNA 2: B2 RNA 2 with U27C, A29U, A52C, G53C, A54G
B10: target 1 MT 5'PFS GCG 3'PFS AUA (mixed)
RNA 1: B1 RNA 1
RNA 2: B2 RNA 2 with U27G, A29G, G53U
B11: target 1 MT 5'PFS GCG 3'PFS AUC (mixed)
RNA 1: B1 RNA 1
RNA 2: B2 RNA 2 with U27G, A29G, G53U, A54C
B12: target 1 G13A,C22A (mixed)
RNA 1: B1 RNA 1
RNA 2: B2 RNA 2 with U27G, C28U, C30A, G39A, A52C, G53C, A54G
B13: target 1 MT 5'PFS CUG 3'PFS AAA (mixed)
RNA 1: B1 RNA 1
RNA 2: B2 RNA 2 with U27C, C28U, A29G, G53A
B14: target 1 MT 5'PFS GCG 3'PFS AUG (mixed)
RNA 1: B1 RNA 1
RNA 2: B2 RNA 2 with U27G, A29G, G53U, A54G
B15: target 1 MT 5'PFS GAG 3'PFS CCG (mixed)
RNA 1: B1 RNA 1
RNA 2: B2 RNA 2 with U27G, C28A, A29G, A52C, G53C, A54G
B16: target 1 MT 5'PFS CAC 3'PFS AUC (mixed)
RNA 1: B1 RNA 1
RNA 2: B2 RNA 2 with U27C, C28A, A29C, G53U, A54C
B17: target 1 MT 5'PFS CAC 3'PFS AUA (mixed)
RNA 1: B1 RNA 1
RNA 2: B2 RNA 2 with U27C, C28A, A29C, G53U
B18: target 1 MT 5'PFS GUC 3'PFS AAC (mixed)
RNA 1: B1 RNA 1
RNA 2: B2 RNA 2 with U27G, C28U, A29C, G53A, A54C
B19: target 1 MT 5'PFS ACG 3'PFS CGA (mixed)
RNA 1: B1 RNA 1
RNA 2: B2 RNA 2 with U27A, A29G, A52C
B20: target 1 MT 5'PFS AAC 3'PFS CGG (mixed)
RNA 1: B1 RNA 1
RNA 2: B2 RNA 2 with U27A, C28A, A29C, A52C, A54G
B21: target 1 MT 5'PFS UUU 3'PFS UCC (mixed)
RNA 1: B1 RNA 1
RNA 2: B2 RNA 2 with C28U, A29U, A52U, G53C, A54C
B22: target 1 MT 5'PFS ACU 3'PFS UAU (mixed)
RNA 1: B1 RNA 1
RNA 2: B2 RNA 2 with U27A, A29U, A52U, G53A, A54U
B23: target 1 complement block 10-13 (mixed)
RNA 1: B1 RNA 1
RNA 2: B2 RNA 2 with U27G, C28U, G39C, G40C, U41A, U42A, A52C, G53C, A54G
B24: target 1 MT 5'PFS UCG 3'PFS UUG (mixed)
RNA 1: B1 RNA 1
RNA 2: B2 RNA 2 with A29G, A52U, G53U, A54G
B25: target 1 MT 5'PFS UCG 3'PFS UUA (mixed)
RNA 1: B1 RNA 1
RNA 2: B2 RNA 2 with A29G, A52U, G53U
B26: target 1 MT 5'PFS UCG 3'PFS UUC (mixed)
RNA 1: B1 RNA 1
RNA 2: B2 RNA 2 with A29G, A52U, G53U, A54C
B27: target 1 MT 5'PFS CUG 3'PFS CGG (mixed)
RNA 1: B1 RNA 1
RNA 2: B2 RNA 2 with U27C, C28U, A29G, A52C, A54G
B28: target 1 MT 5'PFS UCG 3'PFS CUC (mixed)
RNA 1: B1 RNA 1
RNA 2: B2 RNA 2 with A29G, A52C, G53U, A54C
B29: target 1 MT 5'PFS AAG 3'PFS UAU (mixed)
RNA 1: B1 RNA 1
RNA 2: B2 RNA 2 with U27A, C28A, A29G, A52U, G53A, A54U
B30: target 1 MT 5'PFS UCG 3'PFS CUG (mixed)
RNA 1: B1 RNA 1
RNA 2: B2 RNA 2 with A29G, A52C, G53U, A54G
B31: target 1 MT 5'PFS CUG 3'PFS CGU (mixed)
RNA 1: B1 RNA 1
RNA 2: B2 RNA 2 with U27C, C28U, A29G, A52C, A54U
B32: target 1 MT 5'PFS UAU 3'PFS AUC (mixed)
RNA 1: B1 RNA 1
RNA 2: B2 RNA 2 with C28A, A29U, G53U, A54C
B33: target 1 MT 5'PFS UAU 3'PFS AUA (mixed)
RNA 1: B1 RNA 1
RNA 2: B2 RNA 2 with C28A, A29U, G53U
B34: target 1 insC 3' of 19,insA 3' of 12 (mixed)
RNA 1: B1 RNA 1
RNA 2: GGGAAUGGAUCCACAUCUACGAAUUCGUACCAUCAGAGAGGAUUAUCCGCUCACCGAGAUCGGAAGAGCACACGU
B35: target 1 MT 5'PFS GGG 3'PFS CUG (mixed)
RNA 1: B1 RNA 1
RNA 2: B2 RNA 2 with U27G, C28G, A29G, A52C, G53U, A54G
B36: target 1 MT 5'PFS GGG 3'PFS CUC (mixed)
RNA 1: B1 RNA 1
RNA 2: B2 RNA 2 with U27G, C28G, A29G, A52C, G53U, A54C
B37: target 1 MT 5'PFS GGG 3'PFS CUA (mixed)
RNA 1: B1 RNA 1
RNA 2: B2 RNA 2 with U27G, C28G, A29G, A52C, G53U
B38: target 1 MT 5'PFS GUC 3'PFS AAU (mixed)
RNA 1: B1 RNA 1
RNA 2: B2 RNA 2 with U27G, C28U, A29C, G53A, A54U
B39: target 1 MT 5'PFS GGG 3'PFS CUU (mixed)
RNA 1: B1 RNA 1
RNA 2: B2 RNA 2 with U27G, C28G, A29G, A52C, G53U, A54U
B40: target 1 MT 5'PFS AGG 3'PFS CGA (mixed)
RNA 1: B1 RNA 1
RNA 2: B2 RNA 2 with U27A, C28G, A29G, A52C

The binders below were run against T1, EsCas13d, nuclease-dead (assay: crRNA (strand 1, pre-loaded); Mg2+; 40 mM Tris-HCl pH 7.5, 150 mM NaCl, 6 mM MgCl2, 1 mM DTT, 0.1% Tween-20, 0.2 mg/ml BSA; 25 C; 10 min per concentration, then washed). Conditions: tags: His6-TwinStrep-SUMO cleaved; N-terminal SNAP kept (SNAP-Surface 488); label: 3' end held by stalled T7 RNA polymerase.

B1 and B2 are within error of each other in Kd: 15 ± 0.8 nM for the first, 20.5 ± 8.5 nM for the second.

Going from B3 to B4, the Kd falls from 36 ± 10.5 nM to ~17 nM (2.1-fold). The second binds more tightly here.

Going from B5 to B6, the Kd rises from ~9.5 nM to 15.9 ± 4.1 nM (1.7-fold). The first binds more tightly here.

B7 and B8 are within error of each other in Kd: 20 ± 7.5 nM for the first, 16 ± 4.5 nM for the second.

B9 and B10 are within error of each other in Kd: 16.5 ± 7.5 nM for the first, 16.2 ± 2.5 nM for the second.

Going from B11 to B12, the Kd falls from 22 ± 6 nM to 9.6 ± 0.5 nM (2.3-fold). The second binds more tightly here.

Compared with B13, B14 is 2.9-fold higher in Kd: 10.6 ± 2.7 nM for the first, 30.5 ± 8 nM for the second.

B15 and B16 are within 1.5-fold of each other in Kd: ~25 nM for the first, ~28.5 nM for the second.

Compared with B17, B18 is 2.1-fold higher in Kd: ~17 nM for the first, 36.5 ± 17.5 nM for the second.

B19 and B20 are within error of each other in Kd: 28 ± 12 nM for the first, 31 ± 7 nM for the second.

B21 and B22 are within error of each other in Kd: 90 ± 45 nM for the first, ~72.5 nM for the second.

Going from B23 to B24, the Kd falls from 99 ± 30 nM to 43 ± 8 nM (2.3-fold).

B25 and B26 are within error of each other in Kd: 31.5 ± 7.5 nM for the first, 37 ± 12.5 nM for the second.

Going from B27 to B28, the Kd rises from 18.6 ± 3.55 nM to 45.5 ± 20 nM (2.4-fold).

Going from B29 to B30, the Kd rises from 18.5 ± 5 nM to 57.5 ± 23 nM (3.1-fold).

Compared with B31, B32 is 3.1-fold higher in Kd: 21 ± 6.5 nM for the first, ~65 nM for the second.

Compared with B33, B34 is 1.6-fold higher in Kd: 43 ± 15.5 nM for the first, 69 ± 9 nM for the second.

B35 and B36 are within error of each other in Kd: 14.7 ± 2.1 nM for the first, 23 ± 7 nM for the second.

B37 and B38 are within error of each other in Kd: 25.1 ± 5.2 nM for the first, 25.5 ± 6.5 nM for the second.

First: B39
Second: B40
The Kd of the first is 3-fold lower: 24.5 ± 9 nM for the first, ~73 nM for the second. The first binds more tightly here.

Source: publication PMC10786891, “Massively parallel profiling of RNA-targeting CRISPR-Cas13d”
